The test concerns the target T1, thioredoxin (Escherichia coli (strain K12), UniProt P0AA25 2-109 = thioredoxin).
T1 construct: Negative control antigen; also called Trx; TrxA
The experiment in a line: ELISA (FIG. 64).

T1 sequence (P0AA25 2-109 limits assumed): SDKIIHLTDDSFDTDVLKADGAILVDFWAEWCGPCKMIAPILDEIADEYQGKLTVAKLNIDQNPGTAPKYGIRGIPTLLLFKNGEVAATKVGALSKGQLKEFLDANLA

B1: mouse human chimeric anti-R273H p53 antibody clone MH 13E4 (antibody, human IgG1, V domains shown)
VH: EVQLLETGGDLVTPGGSLKLSCAASGFSFSDYYMYWVRQTPEKRLEWVATISVGGTYTFYSDNVKGRFVISRDNARKNLHLEMNSLKSEDAAMYYCVRDGNDGKFLGYWGQGTFVTVTV
VL: DIVMTQSPLSLPVNLGDQVSLSCRSSQSIVHNNGDTYLEWYLQKPGQSPKLLIYKVSNRFSGVPDRFSGSGSGTDFTLKISRVEAEDLGIYYCFQGSHLPLTFGSGTKLELK
notes: Mouse Fv with human IgG1 constant region; also called chimeric 13E4
Regarding B1, the binding result was “no binding (tested: 1 ng/µl)”.

For the origin of these results see patent US20230257457A1 (published 2023).
